Three molecules from paper doi:10.1101/343368 can be followed below.

What all share (experiment): GO/AuNP colorimetric aptasensor
In series [1] the target is T1, beta-lactoglobulin (milk (species ), UniProt P02754 17-178).
T1 sequence: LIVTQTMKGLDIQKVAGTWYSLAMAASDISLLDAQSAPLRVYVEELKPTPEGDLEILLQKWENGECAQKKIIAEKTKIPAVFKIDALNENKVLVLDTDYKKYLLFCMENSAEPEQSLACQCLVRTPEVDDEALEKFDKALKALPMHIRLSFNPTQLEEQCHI

Series [2] addresses tropomyosin (Pen a 1) (shrimp (species ), UniProt Q3Y8M6 1-284).
The target in series [3] is T2, arachin (Ara h 1) (peanut, UniProt P43238 85-626).
T2 sequence: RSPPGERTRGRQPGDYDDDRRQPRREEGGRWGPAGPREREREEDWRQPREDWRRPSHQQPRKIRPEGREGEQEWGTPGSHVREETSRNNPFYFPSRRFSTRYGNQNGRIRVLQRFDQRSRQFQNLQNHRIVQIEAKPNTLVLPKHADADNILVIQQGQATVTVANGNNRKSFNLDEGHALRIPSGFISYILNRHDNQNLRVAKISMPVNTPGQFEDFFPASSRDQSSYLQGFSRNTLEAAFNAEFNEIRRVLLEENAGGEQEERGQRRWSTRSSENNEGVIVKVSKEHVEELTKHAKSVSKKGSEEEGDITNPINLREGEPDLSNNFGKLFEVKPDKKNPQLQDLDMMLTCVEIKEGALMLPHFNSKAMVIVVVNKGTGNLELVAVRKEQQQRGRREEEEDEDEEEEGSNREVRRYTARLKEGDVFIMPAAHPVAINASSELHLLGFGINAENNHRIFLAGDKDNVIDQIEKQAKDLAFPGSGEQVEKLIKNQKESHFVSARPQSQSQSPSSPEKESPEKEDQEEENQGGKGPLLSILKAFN

Chain of tropomyosin (Pen a 1) (Q3Y8M6 whole entry): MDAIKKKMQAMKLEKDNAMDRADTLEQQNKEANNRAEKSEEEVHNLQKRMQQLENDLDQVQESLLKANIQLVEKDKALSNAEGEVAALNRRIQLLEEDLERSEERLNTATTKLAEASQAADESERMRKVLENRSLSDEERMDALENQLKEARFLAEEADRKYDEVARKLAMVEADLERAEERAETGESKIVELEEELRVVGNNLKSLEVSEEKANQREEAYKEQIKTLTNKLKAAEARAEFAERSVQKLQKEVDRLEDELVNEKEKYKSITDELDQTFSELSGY

B1: beta-lactoglobulin (milk) aptamer (ssDNA)
DNA: ATACCAGCTTATTCAATTCGACGATCGGACCGCAGTACCCACCCACCAGCCCCAACATCATGCCCATCCGTGTGTGAGATAGTAAGTGCAATCT
modifications: biotin (position not given)
As for B1, the binding result in series [1] is “binds”.

B2: tropomyosin (shrimp) aptamer (ssDNA)
DNA: TACTAACGGTACAAGCTACCAGGCCGCCAACGTTGACCTAGAAGCACTGCCAGACCCGAACGTTGACCTAGAAGC
modifications: biotin (position not given)
As to B2, in series [2], the binding result is listed as “binds”.

B3: arachin (peanut) aptamer (ssDNA)
DNA: TCGCACATTCCGCTTCTACCGGGGGGGTCGAGCGAGTGAGCGAATCTGTGGGTGGGCCGTAAGTCCGTGTGTGCGAA
modifications: biotin (position not given)
As for B3, the binding result in series [3] is “binds”.
